According to patent publication US11279941B2, “Method for introducing protein into plant cell” (RIKEN, priority 2016, dated 2022):

Columns and labels:
[1] = Hydrodynamic diameter and PDI by dynamic light scattering (DLS); assay type: physicochemical; settings: protein not forming the complex (no carrier peptide)
Method: (§1) A solution of 1.0 g/l of the peptide ((BP100)2K or BP100(KH)9) was mixed with 2 μg of the protein (the BSA-RhB conjugate) at various peptide/protein molar ratios (1, 5, 10, and 25) at 25° C. for about 5 minutes to prepare carrier peptide/protein complexes, and the resultants were diluted to the final volume of 100 μl with autoclaved ultrapure water (MilliQ water). Thereafter, 10 µl of the solution was taken and further diluted to the final volume of 100 μl. The average hydrodynamic diameter of the complexes was measured via dynamic light scattering (DLS) using Zetasizer Nano-ZS (Malvern Instruments, Ltd., Worcestershire, U.K.). Polydispersion indexes (PDI) were determined with the zeta nanosizer (Zetasizer software ver 6.20) using He—Ne laser (633 nm) at 25° C. and a backscattering detection angle of 173°. Thereafter, the sample was further diluted to the total volume of 750 μl with autoclaved ultrapure water (MilliQ water), and the zeta potential was analyzed via laser Doppler microelectrophoresis using Zetasizer Nano-ZS. The zeta potential and zeta shift of the samples were measured three times and the average was determined with Zetasizer software ver 6.20.

[2] = system: YFP-expressing Arabidopsis thaliana leaf; assay: Quantification of peptide delivery efficiency (protein extracted from contacted leaf, PAGE fluorescence); assay type: in vivo; settings: 6 hours after contact; for peptide/protein molar ratio at which the amount of the collected protein was the greatest: BSA-RhB
Method: (§2) About 100 μl of the solution of the carrier peptide/protein complex (the (BP100)2K/BSA-RhB or BP100(KH)9/BSA-RhB complex) prepared in Example 1 was brought into direct contact with an YFP-expressing Arabidopsis thaliana leaf at various peptide/protein molar ratios (1, 5, 10, and 25) with a needleless syringe. Also, about […] of the solution of the carrier peptide/protein complex (the (BP100)2Ks/ADH-RhB complex) prepared in Example 1 was brought into direct contact with an YFP-expressing Arabidopsis thaliana leaf at the peptide/protein molar ratio of 10.
A transgenic YFP-expressing Arabidopsis thaliana leaf was collected 6 hours after bringing it into contact with the (BP100)2K8/BSA-RhB or BP100(KH)9/BSA-RhB complex, and the leaf was washed 2 times with PBS (D-PBS(−), Wako Pure Chemical Industries Ltd., Osaka, Japan) to remove excess BSA-RhB on the leaf surface. Total crude protein extracted from the contacted leaf with 1× lysis buffer (Promega, Madison, U.S.A.) was subjected to 4 to 15% tris-glycine-sodium dodecyl sulfate (SDS)-polyacrylamide gel electrophoresis (PAGE) (Bio-rad, California, U.S.A.) at a constant voltage of 100 V. Thereafter, the BSA-RhB fluorescence was detected at the excitation light of 520 nm and the emission light of 605 nm with the Luminoimage analyzer (LAS-3000, Fujifilm Corporation, Tokyo, Japan). After detecting the fluorescence, the gel was stained with Coomassie blue G250 (Bio-rad, California, U.S.A.) to detect the Rubisco large subunit. The BSA-RhB fluorescence band density and the Coomassie blue-stained rbcL band density were quantified using Image J64 (NIH, Bethesda, Md.), and the BSA-RhB band density was normalized against the rbcL band density. SDS-PAGE was performed again based on the normalized data. The volume of the subjected crude protein in each sample was adjusted, in such a manner that the band density of Coomassie blue-stained rbcL bands would be equivalent to each other among all the tested samples, so as to attain the BSA-RhB band having the normalized fluorescence intensity. […] The total amount of the BSA-RhB protein collected from the contacted leaf was calculated in accordance with the formulae below.
The total amount (μg) of the BSA-RhB protein extracted per contacted leaf=(the amount (μg) of the protein corresponding to the RhB intensity measured per lane of the gel/the volume (μl) of the subjected crude protein per lane of the gel)×the total volume (l) of the extracted crude protein. […]
The obtained data are shown as the mean the standard deviation (SD) of the three tests. […] A statistic difference was determined at a statistic significance of p<0.05 via analysis of variance (ANOVA) and the Tukey's honestly significant difference (HSD) test.

[3] = Zeta potential by laser Doppler microelectrophoresis; assay type: physicochemical; settings: protein not forming the complex (no carrier peptide)
Method: as §1

[4] = system: YFP-expressing Arabidopsis thaliana leaf; assay: Incorporation of carrier peptide/protein complex into cells (CLSM); assay type: in vivo; settings: ADH-RhB alone, absence of carrier peptide, data not shown
Method: as §2
Incorporation of proteins into cells was quantitatively assayed using a confocal laser scanning microscope (CLSM, Carl Zeiss, Oberkochen, Germany). Intracellular delivery of the peptide/BSA-RhB complex or the peptide/ADH-RhB complex to an YFP-expressing Arabidopsis thaliana leaf was observed by detecting the YFP fluorescence at the excitation light of 488 nm and detecting the RhB fluorescence at the excitation light of 555 nm.

BSA-RhB: bovine serum albumin labeled with rhodamine B isothiocyanate, 4 RhB molecules per BSA [reference compound]
Hydrodynamic diameter [1]: 92±2 nm
BSA-RhB extracted from the leaf ([2]; with or without carrier peptide): extracted from the leaf only when the carrier peptide was used
Zeta potential [3]: −35.3±1.5 mV

KKLFKKILKYLKHKHKHKHKHKHKHKHKH (SEQ ID NO: 24) [BP100(KH)9, carrier peptide]
peptide/protein molar ratio at which the amount of the collected protein was the greatest [2]: 5

KKLFKKILKYLKKLFKKILKYLKKKKKKKK (SEQ ID NO: 23) [(BP100)2K8, carrier peptide, fusion of BP100 and oligolysine]
peptide/protein molar ratio at which the amount of the collected protein was the greatest [2]: 10
protein delivery capacity (BSA-RhB extracted from leaf) ([2]; all peptide/protein molar ratios (1-25)): superior to that of the BP100(KH)9 fusion peptide

B1: ADH-RhB: alcohol dehydrogenase (150 kDa) labeled with rhodamine B isothiocyanate, 6 RhB molecules per ADH (conjugate)
chain: SIPETQKGVIFYESHGKLEYKDIPVPKPKANELLINVKYSGVCHTDLHAWHGDWPLPVKLPLVGGHEGAGVVVGMGENVKGWKIGDYAGIKWLNGSCMACEYCELGNESNCPHADLSGYTHDGSFQQYATADAVQAAHIPQGTDLAQVAPILCAGITVYKALKSANLMAGHWVAISGAAGGLGSLAVQYAKAMGYRVLGIDGGEGKEELFRSIGGEVFIDFTKEKDIVGAVLKATDGGAHGVINVSVSEAAIEASTRYVRANGTTVLVGMPAGAKCCSDVFNQVVKSISIVGSYVGNRADTREALDFFARGLVKSPIKVVGLSTLPEIYEKMEKGQIVGRYVVDTSK
Hydrodynamic diameter [1]: 168±7 nm
ADH-RhB signal in leaf [4]: not detected
Zeta potential [3]: −43.1±1.1 mV
